# Results as given in the nanobody polyreactivity screen of Harvey et al. (2022).
# Experiment: yeast display, Sf9 membrane polyspecificity reagent, FACS + sequencing; frameworks hold sequencing errors
# Procedure, shortened: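 Nanobodies from a synthetic yeast display library (Saccharomyces cerevisiae BJ5465), induced 36–48 hours with galactose, were stained 1 hour at 4 °C with 10% biotinylated, detergent-solubilized Sf9 membrane reagent, enriched on streptavidin microbeads, then FACS-sorted. Anti-HA (expression) and streptavidin (reagent binding) fluorescence set low and high (top ~1%) gates. Polyreactivity labels come from the gate of origin. Genes were colony-PCR amplified, MiSeq 2 × 250 sequenced and filtered by CDR length.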
row,Sequence,polyreactivity (PSR sort gate)
1,QVQLVESGGGLVQAGGSLRLSCAASGFTFVDYAMGWYRQAPGKERELVAAISSSGDSTYYADSVKGRFTISRDNAKITVYLQMNSLKPEDTAVYYCAAEYDREEYSGYDYWGQGTQVTVSS,low polyreactivity
2,QVQLVESGGGLVQAGGSLRLSCAASGFTFVDYAMGWYRQAPGKERELVAAITVSGDSTYYADSVKGRFTISRDNAKNTVYLQMNSLKPEDTAVYYCAADPGYYDGGYWGQGTQVTVSS,low polyreactivity
3,QVQLVESGGGLVQAGGSLRLSCAASGFTFVFNARAWYRQAPGKERELVATITNGGSTYYADSVKGRFTISRDNAKNTVYLQMNSLKPEDTAVYYCAAVRKQCSGFDYWGQGTQVTVSS,high polyreactivity
4,QVQLVESGGGLVQAGGSLRLSCAASGFTFVFYAMGWYRQAPGKERELVAAISSRGGSTYYADSVKGRFTISRDNAKNTVDLQMNSLKPEDTAVYYCNVVSTYWTTYEEYYWGQGTQVTVSS,high polyreactivity
5,QVQLVESGGGLVQAGGSLRLSCAASGFTFVGNAMGWYRQAPGKARELVAAIRWTDGSTYYADSVKGRFTISRDNAKNTVYLHMNSLKPEDTAVYYCAKDYRDYARAGDYNVKQADDYWGQGTQVTVSS,low polyreactivity
6,QVQLVESGGGLVQAGGSLRLSCAASGFTFVGNAMGWYRQAPGKERELVAAITSGGSTYYADSVKGRFTISRDNAKNTVYLQMNSLKPEDTAVYYCATGGRGGRRYEYWGQGTQVTVSS,low polyreactivity
7,QVQLVESGGGLVQAGGSLRLSCAASGFTFVGYAMGWYRQEPGKERELVAAISTRGGSTYYADSVKGRFTISRDNAKNTDYLQMNSLKPEDTAVYYCNARGAKRGLLSYYWGQGTQVTVSS,high polyreactivity
8,QVQLVESGGGLVQAGGSLRLSCAASGFTFVHNAMGWYRQAHGKERELVAAISSSGGRTYYADSVKGRFTISRDNAKNTVYLQMNSLKPEDTAVYYCATVNRYGPSYGYWGQGTQVTVSS,high polyreactivity
9,QVQLVESGGGLVQAGGSLRLSCAASGFTFVHYAMGWYRQAPGKETELVAAISSGGSTYYADSVKGRFTISRDNAKNTVYLQLNSLKAEDTAVYYCAALKYSRGVRYGYWGQVTQVTVSS,high polyreactivity
10,QVQLVESGGGLVQAGGSLRLSCAASGFTFVINDMGWYRQAPGKERELVADITSGGDTNYADSVKGRFTISRDNAKNTVYFQMNSLKPEDTAVYYCAADIYPDWIYLLFGYWGQGTQVTVSS,low polyreactivity
11,QVQLVESGGGLVQAGGSLRLSCAASGFTFVNYAMGWYRQAPGKERELVAAIRRSGSRTYYADSVKGRCTISRDIAKYTVYLQMNSLKPDDTPVYYCAAVWYRLYGYWGQGTQVTVSS,low polyreactivity
12,QVQLVESGGGLVQAGGSLRLSCAASGFTFVNYVMGWYRQAHGKERELVAAISRSGGSTYYADSVKGRFTISRDNAKNTVYLQMNSLKPEDTAVYYCAARWFYRAGFNYWGQGTQVTVSS,high polyreactivity
13,QVQLVESGGGLVQAGGSLRLSCAASGFTFVQYAMGWYRQAPGKERELVATISKSGGITYYADSVKGRFTISRDNAKNTVYLQMNSLKPEDTAVYYCAAAWYYSSRGFHATWGHDYWGQGTQVTVSS,low polyreactivity
14,QVQLVESGGGLVQAGGSLRLSCAASGFTFVRNAMGWYRQAPGKERELVAAISGSGGRTYYADSVKGRFTISRDNAKNTVYLQMNSLKPEDTAVYDCNTASAYEYEYWGQGTQVTVSS,high polyreactivity
15,QVQLVESGGGLVQAGGSLRLSCAASGFTFVRNTLGWYRQAPGKERELVATITFSGGSTYYADSVKGRFTISRDNAKNTVYLQMNTLKPEDTAVYYCAAEDWDDGYDYWGQGTQVTVSS,high polyreactivity
16,QVQLVESGGGLVQAGGSLRLSCAASGFTFVRNTMGWYRQAPGKERELVAAISRSGGSTYYADSVKGRFTISRDNAKNTVYLQMNSLKPEDTAVYYCNAYRYVHYDWGQGTQVTVSS,high polyreactivity
17,QVQLVESGGGLVQAGGSLRLSCAASGFTFVRNVMGWYRQAPGKERELVAAINTGGTTDYADSVKGRFTISRDNAKNTVYLQMNSLKPEDTAVYYCNADYDSQYHYLLRYDYWGQGTQVTVSS,low polyreactivity
18,QVQLVESGGGLVQAGGSLRLSCAASGFTFVRYAIGWYRQAPGKERELVSVISRSGGSTNYADSVKGRFTISRDNAKNTVYLQMNSLKPEDTAVYYCAASLQYRRVVKGGDYWGQGTQVTVSS,high polyreactivity
19,QVQLVESGGGLVQAGGSLRLSCAASGFTFVRYAMGWYRQAPGKERELVAAISSGGSTNYADSVKGRFTISRDNAKNTVYLQMNSLKPEDTAVYYCNAVSRKVYPGPMDYWGQGTQVTVSS,high polyreactivity
20,QVQLVESGGGLVQAGGSLRLSCAASGFTFVRYTMGWYRQAPGKERELVAAINRSGGNTYYADSVKGRFTISRDNAKKTVYLQMNSLKPEDTAVYYCAAGYYVQVSLKDYYWGQGTQVTVSS,high polyreactivity
21,QVQLVESGGGLVQAGGSLRLSCAASGFTFVSNAMGWYRQAPGKERELVAAISGSGGSTYYADSVKGRFTISRDNAKNTVYLQMNSLKPEDTAVYYCAKGSRSYVRKMDYWGQGTQVTVSS,low polyreactivity
22,QVQLVESGGGLVQAGGSLRLSCAASGFTFVSNDMGWYRQAPGKERELVAAIRYRGGDTYYADSVKGRFTISRDNAKNTVYLQMNSLKPEDTAVYYCAVDVATYTAGWYYHGYDYWGQGTQVTVSS,low polyreactivity

row,Sequence,polyreactivity (PSR sort gate)
1,QVQLVESGGGLVQAGGSLRLSCAASGFTFVSYAMGWYRQAPGKERELVAAITSNGGSTYYADSVKGRFTISRDNAKNTVYLQMNSLKPEDTAVYYCAAAGFWHGYFGYGYWGQGTQVTVSS,low polyreactivity
2,QVQLVESGGGLVQAGGSLRLSCAASGFTFVSYAMGWYRQAPGKERELVASITWTGGSTYYADSVKGRFTISRDYAKNTVYLQMNSLKPEDTAVYYCAAQQFYSGILGRYYWGQGTQVTVSS,low polyreactivity
3,QVQLVESGGGLVQAGGSLRLSCAASGFTFVVYAMGWYSQAPGKERELVARITWSGGSTYYADSVKGRFTISRDNAKNTVYLQMNSLKPEDTAVYDCNTRRYPYDGIEHDYWGQGTQVTVSS,low polyreactivity
4,QVQLVESGGGLVQAGGSLRLSCAASGFTFVYNAMGWYRQAPGKERELVAAITFSGGSTYYADSVNGRFTISRDNAKNTVYLQMNSLKPEDTAVYYCATDYPGVFVLRRSHPYDYWGQGTQVTVSS,low polyreactivity
5,QVQLVESGGGLVQAGGSLRLSCAASGFTFVYNAMGWYRQAPGKERELVASITQSGDITYYADSVKGRFTISRDNAKNTVYLQMNSLKPEDTAVYYCNKFQGTGDRFDSWGQGTQVTVSS,low polyreactivity
6,QVQLVESGGGLVQAGGSLRLSCAASGFTFVYYGMGWYRQAPGKERELVADISSGGNTYYADSVKGRFTISRDNAKNTVYLQMNSLKPEETAVYYCNKDARDEEGSSRTYDYWGQGTQVTVSS,low polyreactivity
7,QVQLVESGGGLVQAGGSLRLSCAASGFTFVYYVMGWYRQAPGKERELVAAINAGGGSTYYADSVKGRFTISRDNAKNTVYLQMISLKPEDTSVYYCNARVRVRLGRNWSSYYYWGQGTQVTVSS,high polyreactivity
8,QVQLVESGGGLVQAGGSLRLSCAASGFTFVYYVMGWYRQAPGKERELVAAINAGGGSTYYADSVKGRFTISRDNAKNTVYLQMNSLKPEDTAVYYCNARVRVRLGRNWSSYDYWGQGSQVTVSS,high polyreactivity
9,QVQLVESGGGLVQAGGSLRLSCAASGFTFWDYAMGWYRQAPGKERELVAAISDNDGSTDYADSVKGRFTISRDNAKNTVYLQMNSLKPEDTAVYYCNAEIEMPSKEGDYWGQGTQVTVSS,low polyreactivity
10,QVQLVESGGGLVQAGGSLRLSCAASGFTFWDYAMGWYRQAPGKERELVAAISWSGGSTYYADSVKGRFTISRDNAKNTVYLQMNSLKPEDTAVYYCNAVHYSHHGYDYWGQGTQVTVSS,low polyreactivity
11,QVQLVESGGGLVQAGGSLRLSCAASGFTFWGNAMGWSRQAPVKERELVAAISRSGGRTYYADSVKGRFTISRDNAKNTVYLQMNSLKPEDTAVYYCDAGSSHHFDYEGGYWGQGTQVTVSS,low polyreactivity
12,QVQLVESGGGLVQAGGSLRLSCAASGFTFWKYTMGWYRQAPGKERELVATISSSSGSTTYADSVKGRFTISRDNAKNTVYLQMYSLKPEDTAVYYCNVDDPFYSGVVEFDYWGQGTQVTVSS,low polyreactivity
13,QVQLVESGGGLVQAGGSLRLSCAASGFTFWLYAMGWYRQAPGKERELVATISWSGGSTYYADSVKGRFTISRDNAKNTVYLQMNSLKPEDTAVYYCAARLNYGNKYDYWGQGTQVTVSS,high polyreactivity
14,QVQLVESGGGLVQAGGSLRLSCAASGFTFWPNAMGWYRQAPGKERELVAAINWSGGSTYYADSVKGRFTISRDNAKNSVYLQMNSLKPEDTAVYYCNADPYLLEHDYWGQGTQVSVSS,low polyreactivity
15,QVQLVESGGGLVQAGGSLRLSCAASGFTFWPNAMGWYRQAPGKERELVAAINWSGGSTYYADSVKGRFTISRDNAKNTVFLQLNSLKPEDTAVYYCAAVSYDWYVGYEFWGQGTQVTVSS,low polyreactivity
16,QVQLVESGGGLVQAGGSLRLSCAASGFTFWQYAMGWYRQAPGKERELVAAITRDVGSTYYADSVKGRFTISRDNAKNTVYLQMNSLKPEDTAVYYCAKLFGGTYYEYDYWGQGTHVTVSS,low polyreactivity
17,QVQLVESGGGLVQAGGSLRLSCAASGFTFWRNAMGLYRQAPGKERELDAAISWRGGSTYYADCVKGRFTISRDNAKNTVYFQMNSLKPEDTAVYYCNVVYFRYYSGEFDYWGQGTQVTVSS,high polyreactivity
18,QVQLVESGGGLVQAGGSLRLSCAASGFTFWRNTMGSYRQARGKEREFVAAIDWSGGSTTYADSVKGRFTISRDNAKNTVYLQMNSLKKEDTAVYYCAAAERRRHYWWGQESDYWGQGTQVTVSS,low polyreactivity
19,QVQLVESGGGLVQAGGSLRLSCAASGFTFWRYAMGWYRQAPGKDRELVAAISSSGGSTYYADSVKGRFTISRDNAKNTVYLQMNSLKPEVTAVYYCATSVRFVRGWGYSYRGYDYWGQGTQVTVSS,high polyreactivity
20,QVQLVESGGGLVQAGGSLRLSCAASGFTFWSYAMGWYRQAPGKERELVAAISRNGGRTYYADSVKGRFTISRDNAKNTVYVQMNSLKPEDTAVYYCATRARNRYTEMDYWGQGTQVTVSS,high polyreactivity
21,QVQLVESGGGLVQAGGSLRLSCAASGFTFWSYAMGWYRQAPGKERELVAAISSSGDSTYYADSVKGRFTISRDNAKNTVYLQMNSLKPEDTAVYYCAAGTHTDYGRYYYWGQGTQVTVSS,low polyreactivity
